In US20080220450A1 (DANISCO US INC GENENCOR DIVISION, published 2008):

Target: HLA-DR2(15) (human)
Assay: competition assay against a standard peptide on purified HLA class II

- IC50: 127 nM
B1: B. lentus subtilisin epitope peptide, amino acids 160-174 (peptide, UniProt P29600 160-174, looked up)
peptide: SYPARYANAMAVGAT
notes: Synthetic 15-mer; also called peptide position #54
